Data published in the nanobody polyreactivity screen of Harvey et al. (2022).

Assay: yeast display, Sf9 membrane polyspecificity reagent, FACS + sequencing; frameworks hold sequencing errors
Outline: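 In a synthetic yeast display library (Saccharomyces cerevisiae BJ5465), nanobody expression was induced with galactose for 36–48 hours. FACS gates were set low and high (top ~1%) using anti-HA fluorescence for expression and streptavidin fluorescence for binding of the Sf9 membrane reagent. Each polyreactivity label is drawn from the gate of origin.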

Row | Sequence | polyreactivity (PSR sort gate)
1 | QVQLVESGGGLVQAGGSLRLSCAASGNTFPAYAMGWYRQAPGKERELVATISWSTGSTNYADSVKGRFTISRDIAKNTVYLQMNSLKPEDTAVYYCNKELYDFKDRNLKAFLLRIFDSWGQGTQVTVSS | low polyreactivity
2 | QVQLVESGGGLVQAGGSLRLSCAASGNTFPFNAMGWYRQAPGKERELVAAISRGGSTYYADSVKGRFTISRDNAKNTVYLQMNSLKPEDTAVYYCAVSAGKRRLDYWGQGTQVTVSS | high polyreactivity
3 | QVQLVESGGGLVQAGGSLRLSCAASGNTFPTYAMGWYRQAHGKERELVAAINKRGSNTYYADSVKGRFTISRDNAKNTVYLQMNSLKPEDTADYYARAAGEYDYWGQGTQVTVSS | high polyreactivity
4 | QVQLVESGGGLVQAGGSLRLSCAASGNTFPWYAMGWSRQAPGKERELVAAINSGGRTNYADSVKGRFTISRDNAKNTVYLQMNSLKQEDTAVYYCAAAFDWGLYCFDYWGQGTQVTVSS | high polyreactivity
5 | QVQLVESGGGLVQAGGSLRLSCAASGNTFREYTMGWYRQAPGKERELVAGISGSGGRTYYADSVKGRFTISRDNAKNTVYLQMNSLKPEDTAVYYCYARWYYGIGYNYWGQGTQVTVSS | high polyreactivity
6 | QVQLVESGGGLVQAGGSLRLSCAASGNTFRLYAMGWYRQAPGKERELVATITSGVSTNYADSVKGRFTISRDNAKNTVYLQMNSLKPEDTAVYYCAARHYYTYSSGFGRYIYTEYYWGQGTQVTVSS | low polyreactivity
7 | QVQLVESGGGLVQAGGSLRLSCAASGNTFRRNVMGWYRQAPGKERELVAAINRGGSTTYADSVKGRFTISRDNAKNTVYLQMNSLKAEDTAVYYCNARTLFKWRHGHYYAYDYWGQGTQVTVSS | high polyreactivity
8 | QVQLVESGGGLVQAGGSLRLSCAASGNTFRSYAMGWYRQAPGKERELVAAISGRGGSTYYADSVKGRFTISRDNAKNTVDLQMNSRKPEDTAVYYCAAESRRVNYANDYWGQGTQVTVSS | high polyreactivity
9 | QVQLVESGGGLVQAGGSLRLSCAASGNTFRSYVMGWYRPAPGKARELVADISSGDGTNYADSVKGRFTISRDTAKNTVYLQMNSLKPEDTAVYYCAKDVYNFRSTHSYFTGYVSWGQGTQVTVSW | low polyreactivity
10 | QVQLVESGGGLVQAGGSLRLSCAASGNTFRSYVMGWYRQAPGKERELVAVITKSGGSTYYADSVKGRFTISRDNAKNTVYLQMNSLKPEDTAVYYCAADRPAYGVGYWGQGTQVTVSS | high polyreactivity
11 | QVQLVESGGGLVQAGGSLRLSCAASGNTFRWYDMGGYRQAPGKERELVAAITSSGSTTYYADSVKGRFTISRDNAKNTVYLQMNSLKPEDTAVYYCAAEDHYEGYGGYYWGHGTQVTVSS | low polyreactivity
12 | QVQLVESGGGLVQAGGSLRLSCAASGNTFRYNAMGWYRQAPWKERELVAAISRRGGSTYYADSVKGRFTISRDNAKNTVYLQMNSLKPEDTAVYYCNAGRTAENEYWGQGTQVTVSS | high polyreactivity
13 | QVQLVESGGGLVQAGGSLRLSCAASGNTFRYNTMGWYRQAPGKERELVAVITRRGSSTYYADSVKGRFTISRDNAKNTVYLQMNSLKPEDTAVYYCAAAPYYVTLVTRRDYWGQGTQVTVSS | high polyreactivity
14 | QVQLVESGGGLVQAGGSLRLSCAASGNTFRYYAMGWYRQAPGKERELVAAISRNGGSTYADSVKGRFTISRDNAKNTVYLQMNSLKPEDTAVYYCNAYRIRPGTPYGKGYYYWGQGTQVTVSS | high polyreactivity
15 | QVQLVESGGGLVQAGGSLRLSCAASGNTFSNYAMGWYRQAPGKEREFVAAIRKSGASTYYADSVKGRFTISRDNAKNSVYLQMNSLKPEDTAVYYCAADGQVSFALGFDYWGQGTQVTVSS | high polyreactivity
16 | QVQLVESGGGLVQAGGSLRLSCAASGNTFSPYAMGWYRQAPGKERELVAAITFRGGSTYYADSVKGRFTISRDNAKNTVYLQMNSLKPEDTAVYYCNAERGGWSGYFGYDYWGQGTQVTVSS | low polyreactivity
17 | QVQLVESGGGLVQAGGSLRLSCAASGNTFSSYAMGWYRQAPGKERELVAAISRRGGSTYYADSVKGRFTISRDNAKNTVYLQMNSLKPEDTAVYYCAADGTGFRYLRYDYWGQGTQVTVSS | high polyreactivity
18 | QVQLVESGGGLVQAGGSLRLSCAASGNTFSYYAMGWYRQAPGKERELVAAISWRGGSTYYADSVKGRFTISRDNAKNTVYLQMNSLKPEDTAVYYCAADLYWASLWYVGAAYGYEYWGQGTQVTVSS | low polyreactivity
19 | QVQLVESGGGLVQAGGSLRLSCAASGNTFTAYAMGWYRQAPGKERELVAAISSSGRTNYADSVKGRFTISRDNAKNTVYLQMNSLKPEDTAVYYCAAYRLSKPFYKYDYWGEGTQVTVSS | high polyreactivity
20 | QVQLVESGGGLVQAGGSLRLSCAASGNTFTTYAMGWYRQAPGKERELVAVISRSGGRTYYADSVKGRFTISRDNAKNTVYLQMNSLKPEDTAVYYCATRTYATSEYGYWGQGTQVTVSS | high polyreactivity
21 | QVQLVESGGGLVQAGGSLRLSCAASGNTFTWYTIGWYRQAPGKERELVAVITSDGSTYYADSVKGRFTISRDNAKNTVYLQMNSLKPEDTAVYYCNALSADWYPEVDYWGQGTQVTVSS | low polyreactivity
22 | QVQLVESGGGLVQAGGSLRLSCAASGNTFTWYTMGWYRQAPGKERELVAVITSDGSTYYADSVKGRFTISRDNAKNTVDLQMNSLKPEDTAVYYCNALSADWYPEEDYWGQGTQVTVSS | low polyreactivity

Row | Sequence | polyreactivity (PSR sort gate)
23 | QVQLVESGGGLVQAGGSLRLSCAASGNTFTWYTMGWYRQAPGKERELVAVITSDGSTYYADSVKGRFTISRDNAKNTVYLQMNSLKPEDTAGYYCNALSADWYPEEDFWGQGTQVTVSS | low polyreactivity
24 | QVQLVESGGGLVQAGGSLRLSCAASGNTFTWYTMGWYRQAPGKERELVAVITSDGSTYYADSVKGRFTISRDNAKNTVYLQMNSLKPEDTAVYYCNARYLRLRYPYTDEYNYWGQGTQVTVSS | low polyreactivity
25 | QVQLVESGGGLVQAGGSLRLSCAASGNTFVGYTMGWYRQAPGKEWELVAAISWNGGTTYYADSVKGRFTISRDNAKNTVYLQMNSLKPEDTAVYYCNTRWYTRRFDYWGQGTQVTVSS | high polyreactivity
26 | QVQLVESGGGLVQAGGSLRLSCAASGNTFVSNAMGWYRPAPGKERELVAAINSGGSTNYADSVKGRFTISRDNAKNTVYLQMNSLKPEDTAVYYCNKYYDYPQRYWMDYWGQGTQVTVSS | low polyreactivity
27 | QVQLVESGGGLVQAGGSLRLSCAASGNTFVSNAMGWYRQAPGKERELVAAIDSGGSTNYADSVKGRFTISRDNEKNTVYLQMKSLKPEDTAVYYCNRTSVYYYYWGQGTQVTVSS | low polyreactivity
28 | QVQLVESGGGLVQAGGSLRLSCAASGNTFVYNAMGWYRQAPGKERELVAGLTKTGGRTYYADSVKGRVTISRDNAKNTVYLQMNSLKPEETAVYYCAARPWNDGYYVGRFHMDYWGQGTQVTVSS | low polyreactivity
29 | QVQLVESGGGLVQAGGSLRLSCAASGNTFVYNDMGWYRQAPGKERELVADIRYSGSTYYADSVKGRFTISRDNAKNTVYLQMNSLKPEDTAVYYCAKAYYVLSWMGYWGQGTQVTVSS | low polyreactivity
30 | QVQLVESGGGLVQAGGSLRLSCAASGNTFWYYAMGWYRQAPGKERELVAAISWDGGITYYADSVKGRFTISRDNAKNTVYLQMNSLKPEDTAVYYCAAETNPKYRYTLDKYEYWGQGTQVTVSS | high polyreactivity
31 | QVQLVESGGGLVQAGGSLRLSCAASGNTFYGYAMGWYRQAPGKERELVASITLSGDSTYYADSVKGRFTISRDNAKNTVYLQMNSLKPEDTAVYYCGGVYTYPLGYYHYTYDYWGQGPQVTVSS | low polyreactivity
32 | QVQLVESGGGLVQAGGSLRLSCAASGNTFYGYAMGWYRQAPGKERELVASITLSGDSTYYADSVKGRFTISRDNAKNTVYLQMNSLNPEETAVYYFNAQFTPRYWGGYDSWGQGTQVTVSS | low polyreactivity
33 | QVQLVESGGGLVQAGGSLRLSCAASGNTFYGYAMGWYRQAPGKERELVASSTLSGDSTYYADSVKGRFTISRDNAKNTVYLQMNSLKPEDTAVYYCAGVYTYPLGYYHYTYDYWGQGTQVTVSS | low polyreactivity
34 | QVQLVESGGGLVQAGGSLRLSCAASGNTFYGYARGWYRQAPGKERELVASITLSGDSTYYADSVKGRFTISRDNAKNTVYLPMNSLKPEDTAVYYCNADWYFQYPYDYWGQGTQVTVSS | low polyreactivity
35 | QVQLVESGGGLVQAGGSLRLSCAASGNTFYHYVMGWYRQAPGKESELVAAISRSGGSTYYADSVKGRFTISRDNAKNTVYLQMNSLKPEDTAVYYCAARTSIGLLYDYWGQGTQVTVSS | high polyreactivity
36 | QVQLVESGGGLVQAGGSLRLSCAASGNTFYINTMGWYRQAPGKEREFVAAITWSGGPTYYADSVKGRFTISRDNAKNTVYLQMNSLKPEDTAVYYCAADSRGEDYYYWGQGTQVTVSS | high polyreactivity
37 | QVQLVESGGGLVQAGGSLRLSCAASGNTFYKNTMGWYRQAPGKERELVAAISQRGTRTYYADSVKGRFTISRDNAKNSVYLQLYSLNPEDTAVYYCATDLSQVGFDYWGQGTQVTVSS | high polyreactivity
38 | QVQLVESGGGLVQAGGSLRLSCAASGNTFYRNAMGWYRQAPGKERELVAGISNGGSTNYEDSVKGRFTISRDNAKNSVYLQMNSLKPEDTAVYYFAKDEPKVSRAFDYWGQGTQVNVSS | low polyreactivity
39 | QVQLVESGGGLVQAGGSLRLSCAASGNTFYTYAMGWYRQAPGKERELVAAITSGGRTYADSVKGRFTISRDNAKNTVYLQMNSLKPEDTEVYYCAAEFPGFYYVYPGDYWGQGTQVTVSS | low polyreactivity
40 | QVQLVESGGGLVQAGGSLRLSCAASGNTFYWYVMGWYRQAPGKERELVARITSSGGSTNYADSVKGRFTISRDNAKNTVYLQMNSLKPEDTAVYYCAADDIYLYGGGTDYYYWGQGTQVTVSS | low polyreactivity
41 | QVQLVESGGGLVQAGGSLRLSCAASGNTIIRYAMGWYRQAPGKERELVAAISYSGGRTYYADSVKGRFTISRDNAKNTVYLQMNSLKPEDTAVYYCNAASRYGGDYWGQGTQVTVSS | low polyreactivity
42 | QVQLVESGGGLVQAGGSLRLSCAASGNTIRVYAMGWYRQAPGKERELVAAITWSGSRTYYADSVKGRFTISRDNAKNTVYLQMNSLKPEDTAVYYCAARFVRPAYNYWGQGTQVTVSS | high polyreactivity
43 | QVQLVESGGGLVQAGGSLRLSCAASGNTISYYAMGWYRQAPGKERELVAAISANGGSTYYADSVKGRFTISRDNAKNTVYLQMNSLKPEDTAVYYCNRRFLSRNQNEYDYWGQGTQVTVSS | high polyreactivity
